The source of these data is the nanobody polyreactivity screen of Harvey et al. (2022).

A short description of the data set: yeast display, Sf9 membrane polyspecificity reagent, FACS + sequencing; frameworks hold sequencing errors. The gist of the method:
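Nanobodies from a synthetic yeast display library (Saccharomyces cerevisiae BJ5465), induced 36–48 hours with galactose, were stained 1 hour at 4 °C with 10% biotinylated, detergent-solubilized Sf9 membrane reagent, enriched on streptavidin microbeads, then FACS-sorted. Anti-HA (expression) and streptavidin (reagent binding) fluorescence set low and high (top ~1%) gates. Polyreactivity labels come from the gate of origin. Genes were colony-PCR amplified, MiSeq 2 × 250 sequenced and filtered by CDR length.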
With “QVQLVESGGGLVQAGGSLRLSCAASGSIFGQYAMGWYRQAPGKERELVAAISTRGGSTRYADSVKGRFTISRDNAKNTVYLQMNSLKPEDTAVYYCAARPGYLYDYWGQGTQVTVSS”, the “polyreactivity (PSR sort gate)” value is reported as “high polyreactivity”. The value for “QVQLVESGGGLVQAGGSLRLSCAASGSIFGQYAMGWYRQAPGKERELVAAITDTGDSTYYADSVMGRFTISRDNAKNTVYLQMNSLKPEDTAVYYCAADVYYAFGSMYYWGQGTQVTVSS” was “low polyreactivity”; that for “QVQLVESGGGLVQAGGSLRLSCAASGSIFGRNAMGWYRQAPGKDRELVAAINSGGSTNYADSVKGRFTISRYNAKNTVYLQMNSLKPEDTAVYYCAARTYSSGRYYGYVAFYYWGQGTQVTVSS” was “high polyreactivity”; that for “QVQLVESGGGLVQAGGSLRLSCAASGSIFGRYAMGWYRQAPGKERELVAAISYSGGSTYYADSVKGRFTISRDNAKNTVYLQMNSLKPEDTAFYYCAAETSYYTRWFDGHYYYWGQGTQVTVSS” was “high polyreactivity”. The value for “QVQLVESGGGLVQAGGSLRLSCAASGSIFGRYGAMGWYRQAPGKDRELVAAIRTSGVSTYYADSVKGRYTISRDNAKKTVYLQMNSLKPEDTAVYYCAKGYTSYNLGKYGYWGQGTQVTVTS” was “high polyreactivity”. Under “QVQLVESGGGLVQAGGSLRLSCAASGSIFGRYVMGWYRQAPGKERELVATISSGGSTYYADSVKGRFTISRDNAKNTVYLQMNSLKPEDTAVYYCAASYSRFVDWIGDPGYDYWGQGTQVTVSS” stands “low polyreactivity”; under “QVQLVESGGGLVQAGGSLRLSCAASGSIFGSNAMGWYRQAPGKEREFVAAIDWGGTITYYADSVKGRFTISRDNAKNTVYLQMNSLKPEDTAVYYCAADPTYPYGYWGQGTQVTVSS”, “low polyreactivity”; under “QVQLVESGGGLVQAGGSLRLSCAASGSIFGSNAMGWYRQAPGKEREFVAVITWRVGDTYYADSVKGRFTISRDNAKNTVYLQMYSLKPEDTAVYYCNVDWKVYGAPDYRIAWKYDYWGQGTQVTVSS”, “low polyreactivity”. As for “QVQLVESGGGLVQAGGSLRLSCAASGSIFGSNAMGWYRQAPGKERELVAAISSGSTYYADSVKGRFTISRDNAKNTVYLQMNSLKPEDTAVYYCNARSLLYEFDYWGQGTQVTVSS”, the “polyreactivity (PSR sort gate)” value is listed as “low polyreactivity”. The value for “QVQLVESGGGLVQAGGSLRLSCAASGSIFGSNAMGWYRQAPGKERELVAVITNGGRTYYADSVKGRFTISRDNAKNSVYLQMNSLNPEDTAVYYCAASRVYGWYGSYSTYGSWGQGTQVTVSS” was “high polyreactivity”; that for “QVQLVESGGGLVQAGGSLRLSCAASGSIFGSNAMGWYRQARGKERELVASISKRGGSTYYADSVKGRFTISRDNAKNTVYVQMNSLKPEDTAVYSCAARSYYNGKISRVGYWGQGTQVTVSS” was “high polyreactivity”; that for “QVQLVESGGGLVQAGGSLRLSCAASGSIFGSYAMGWYRQAPGKERELVAAIRSGGGTYYADSVKGRFTISRDNAKNTVYLQMNSLKPEDTAVYYCAAGDGFYFSFYIYDYWGQGTQGTVSS” was “low polyreactivity”. With “QVQLVESGGGLVQAGGSLRLSCAASGSIFGSYAMGWYRQAPGKERELVAAISRSGGRTYYADSVKGRFTISRDNAKYTVYLQMNSLKPEDTAVYYCAADTYIGYDYWGQGTQVTVSS”, the “polyreactivity (PSR sort gate)” value is “high polyreactivity”.

“QVQLVESGGGLVQAGGSLRLSCAASGSIFGTNGMGWYRQAPGKERELVAAITRRGGSTYADSVKGRFTISRDNAKNTVYLQMNSLKPEDTAVYYCAVDQGYVVRLAWIYGYWGQGTQVSVSS”: the “polyreactivity (PSR sort gate)” value is reported as “low polyreactivity”. The value for “QVQLVESGGGLVQAGGSLRLSCAASGSIFGTNTMGWYRQAPGKEREFVAVITGSTTSTYYADSVKGRFTISRDNAKNTVYLQMNSLKPEDTAVYYCPTDYWWDLFEYDYWGQGTQVTVSS” was “high polyreactivity”; that for “QVQLVESGGGLVQAGGSLRLSCAASGSIFGTYAMGWYRQAPGKAREFVADISAIGTSTYYADSVKGRFTISRDNAKNTVYLQMNSLKPEDTAVYYCAAESFDTVEYDYWGQGTQVTVSS” was “low polyreactivity”.
